The values that follow come from patent publication US20080220049A1.

The labels stand for the following.
B1: A4 (designed binder)
chain: EVVAATPTSLLISWRHPHFPTRYYRITYGETGGNSPVQEFTVPLQPPTATISGLKPGVDYTITGYAVTDGYNDRLLFIPISINYRT
B2: EGE9 (designed binder)
chain: EVVAATPTSLLISWRHPHFPTRYYRITYGETGGNSPVQEFTVPLQPPTATISGLKPGVDYTITGYAVTFGPNDRELLTPISINYRT
B3: F1 (designed binder)
chain: EVVAATPTSLLISWRHPHFPTRYYRITYGETGGNSPVQEFTVPLQPPTATISGLKPGVDYTITGYAVTSGRNDRELLVPISINYRT
B4: A8 (designed binder)
chain: EVVAATPTSLLISWRHPHFPTRYYRITYGETGGNSPVQEFTVPLQPPTATISGLKPGVDYTITGYAVTDGLNGKYLFVPISINYRT
B5: E12 (designed binder)
chain: EVVAATPTSLLISWRHPHFPTRYYRITYGETGGNSPVQEFTVPLQPPTATISGLKPGVDYTITGYAVTFARDGHEILTPISINYRT
B6: E22 (designed binder)
chain: EVVAATPTSLLISWRHPHFPTRYYRITYGETGGNSPVQEFTVPLQPPTATISGLKPGVDYTITGYAVTLGRNDRELLTPISINYRT
B7: F12 (designed binder)
chain: EVVAATPTSLLISWRHPHFPTRYYRITYGETGGNSPVQEFTVPLQPPTATISGLKPGVDYTITGYAVTDGRNGHELMTPISINYRT
B8: E13 (designed binder)
chain: EVVAATPTSLLISWRHPHFPTRYYRITYGETGGNSPVQEFTVPLQPPTATISGLKPGVDYTITGYAVTLEQNGRELMTPISINYRT
B9: E21 (designed binder)
chain: EVVAATPTSLLISWRHPHFPTRYYRITYGETGGNSPVQEFTVPLQPPTATISGLKPGVDYTITGYAVTWGYKDHELLIPISINYRT
B10: EGE11 (Table 2 row SEQ ID NO 88) (designed binder)
chain: EVVAATPTSLLISWRHPHFPTRYYRITYGETGGNSPVQEFTVPLQPPTATISGLKPGVDYTITGYAVTMGKNDRELLTPISINYRT
B11: D11 (designed binder)
chain: EVVAATPTSLLISWRHPHFPTRYYRITYGETGGNSPVQEFTVPLQPPTATISGLKPGVDYTITGYAVTVERNGHKLFTPISINYRT
B12: F10 (designed binder)
chain: EVVAATPTSLLISWRHPHFPTRYYRITYGETGGNSPVQEFTVPLQPPTATISGLKPGVDYTITGYAVTMAPNGRELLTPISINYRT
B13: E10 (designed binder)
chain: EVVAATPTSLLISWRHPHFPTRYYRITYGETGGNSPVQEFTVPLQPPTATISGLKPGVDYTITGYAVTEGRNGRELFIPISINYRT
B14: A9 (designed binder)
chain: EVVAATPTSLLISWRHPHFPTRYYRITYGETGGNSPVQEFTVPLQPPTATISGLKPGVDYTITGYAVTEGWNDRELFVPISINYRT
B15: E15 (designed binder)
chain: EVVAATPTSLLISWRHPHFPTRYYRITYGETGGNSPVQEFTVPLQPPTATISGLKPGVDYTITGYAVTLEPNGRYLMVPISINYRT
B16: EGE10 (designed binder)
chain: EVVAATPTSLLISWRHPHFPTRYYRITYGETGGNSPVQEFTVPLQPPTATISGLKPGVDYTITGYAVTMGPNDRELLTPISINYRT
B17: G1 (designed binder)
chain: EVVAATPTSLLISWRHPHFPTRYYRITYGETGGNSPVQEFTVPLQPPTATISGLKPGVDYTITGYAVTEGRNGRELMVPISINYRT
B18: A7 (designed binder)
chain: EVVAATPTSLLISWRHPHFPTRYYRITYGETGGNSPVQEFTVPLQPPTATISGLKPGVDYTITGYAVTDGPNNRELIVPISINYRT
B19: A10 (designed binder)
chain: EVVAATPTSLLISWRHPHFPTRYYRITYGETGGNSPVQEFTVPLQPPTATISGLKPGVDYTITGYAVTFGWNGRELLTPISINYRT

The target in this assay is mouse vascular endothelial growth factor receptor-2 Fc chimera (Flk-1-Fc) (mouse) (UniProt P35918). The experiment in a line: radioactive equilibrium binding, 1 nM Flk-1-Fc.
Sequence of mouse vascular endothelial growth factor receptor-2 Fc chimera (Flk-1-Fc) (mouse) (P35918 20-762, change not shown): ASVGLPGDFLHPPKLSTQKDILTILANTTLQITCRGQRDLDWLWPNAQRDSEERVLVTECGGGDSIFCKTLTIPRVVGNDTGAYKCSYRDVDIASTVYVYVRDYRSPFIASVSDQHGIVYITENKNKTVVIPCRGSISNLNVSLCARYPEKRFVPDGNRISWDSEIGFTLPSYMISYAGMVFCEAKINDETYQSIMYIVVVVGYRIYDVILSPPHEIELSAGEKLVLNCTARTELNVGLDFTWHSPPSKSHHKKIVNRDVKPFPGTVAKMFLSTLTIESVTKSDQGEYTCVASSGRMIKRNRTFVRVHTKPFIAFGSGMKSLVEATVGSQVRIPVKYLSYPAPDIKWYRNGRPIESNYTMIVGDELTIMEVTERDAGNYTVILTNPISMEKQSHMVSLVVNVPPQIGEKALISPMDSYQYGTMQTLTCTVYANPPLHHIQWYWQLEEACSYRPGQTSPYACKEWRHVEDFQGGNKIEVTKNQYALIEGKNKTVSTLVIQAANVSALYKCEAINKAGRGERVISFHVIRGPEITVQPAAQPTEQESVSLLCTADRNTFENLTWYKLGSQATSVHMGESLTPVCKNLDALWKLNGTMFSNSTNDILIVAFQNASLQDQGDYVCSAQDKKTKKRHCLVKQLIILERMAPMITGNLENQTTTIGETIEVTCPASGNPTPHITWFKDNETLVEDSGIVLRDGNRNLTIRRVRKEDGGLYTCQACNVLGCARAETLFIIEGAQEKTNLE
B1: the Binding to 1 nM Flk-1, % came to 2%. B2: the Binding to 1 nM Flk-1, % is 1%. With B3, the Binding to 1 nM Flk-1, % was 2%. As to B4, the Binding to 1 nM Flk-1, % was 4%. Then B5, with 1%; and B6, with 3%; and B7, with 1%.

As for B8, the Binding to 1 nM Flk-1, % turned out to be 1%. Then B9, with 1%; and B10, with 1%. The figure for B11 is 3%; for B12 it is 1%.

Consider B13, for which the Binding to 1 nM Flk-1, % amounted to 3%. As to B14, the Binding to 1 nM Flk-1, % is 4%. As for B15, the Binding to 1 nM Flk-1, % came to 2%. Regarding B16, the Binding to 1 nM Flk-1, % stood at 1%. On to B17, for which the Binding to 1 nM Flk-1, % is 2%. As for B18, the Binding to 1 nM Flk-1, % stood at 2%. For B19, the Binding to 1 nM Flk-1, % was 4%.
